Target: GST-BRCA1-N (N-terminal of BRCA1, 1-147 aa) (human, UniProt P38398 1-147)
Experiment: MST

Chain of GST-BRCA1-N (N-terminal of BRCA1, 1-147 aa) (P38398 1-147): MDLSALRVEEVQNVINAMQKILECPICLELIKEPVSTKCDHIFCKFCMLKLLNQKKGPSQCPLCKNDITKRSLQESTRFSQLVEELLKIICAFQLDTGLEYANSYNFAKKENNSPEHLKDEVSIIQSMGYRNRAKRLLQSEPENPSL

B1: GFP-BARD1^WT (natural protein)
chain: MPDNRQPRNRQPRIRSGNEPRSAPAMEPDGRGAWAHSRAALDRLEKLLRCSRCTNILREPVCLGGCEHIFCSNCVSDCIGTGCPVCYTPAWIQDLKINRQLDSMIQLCSKLRNLLHDNELSDLKEDKPRKSLFNDAGNKKNSIKMWFSPRSKKVRYVVSKASVQTQPAIKKDASAQQDSYEFVSPSPPADVSERAKKASARSGKKQKKKTLAEINQKWNLEAEKEDGEFDSKEESKQKLVSFCSQPSVISSPQINGEIDLLASGSLTESECFGSLTEVSLPLAEQIESPDTKSRNEVVTPEKVCKNYLTSKKSLPLENNGKRGHHNRLSSPISKRCRTSILSTSGDFVKQTVPSENIPLPECSSPPSCKRKVGGTSGRKNSNMSDEFISLSPGTPPSTLSSSSYRRVMSSPSAMKLLPNMAVKRNHRGETLLHIASIKGDIPSVEYLLQNGSDPNVKDHAGWTPLHEACNHGHLKVVELLLQHKALVNTTGYQNDSPLHDAAKNGHVDIVKLLLSYGASRNAVNIFGLRPVDYTDDESMKSLLLLPEKNESSSASHCSVMNTGQRRDGPLVLIGSGLSSEQQKMLSELAVILKAKKYTEFDSTVTHVVVPGDAVQSTLKCMLGILNGCWILKFEWVKACLRRKVCEQEEKYEIPEGPRRSRLNREQLLPKLFDGCYFYLWGTFKHHPKDNLIKLVTAGGGQILSRKPKPDSDVTQTINTVAYHARPDSDQRFCTQYIIYEDLCNYHPERVRQGKVWKAPSSWFIDCVMSFELLPLDS
Kd: 1340 nM
